The target in this test is Glucagon-like peptide-1 receptor extracellular domain. The test can be described thus: SPR; Biacore 8K, according to the user's manual; who was immobilised and the conditions are not stated. For orientation: In SPR one partner is held on a chip, and binding of the other changes the refractive index at the surface.

Regarding FTSEGTSSYLETGGPSSGAPPPS [PEP10], the Kd turned out to be 3 µM.
Next, KEYSSPAATQRF [PEP02]: 1.05 µM.
Consider EFIATAWLVKQT [PEP06], for which the Kd worked out at 2.59 µM.
Next, FFYSSPSAYLET [PEP01]: 0.74 µM.
Next, KQYSSPTAWLVG [PEP03]: 1.75 µM; YSHAYLEETQRF [PEP05]: 2.21 µM.
Next, YSHAYLEETQRFGGPSSGAPPPS [PEP11]: 1.25 µM.
In turn, FFYSSPSAYLETGGPSSGAPPPS [PEP07] displayed a Kd of 0.024 µM.
As for EFIATAWLVKQTGGPSSGAPPPS [PEP12], the figure is 1.09 µM.
Molecule KEYSSPAATQRFGGPSSGAPPPS [PEP08] returned a Kd of 0.151 µM.
As for FTSEGTSSYLET [PEP04], the figure is 3.99 µM.

The Kd is the equilibrium constant for the complex coming apart.
